Laboratory results as given in patent publication US20140220634A1 (Janssen / Centocor, published 2014).
Residue numbers refer to the chain shown, from its start.

B1: Fab323-G9 (Fab, V domains shown)
VH: EVQLLESGGGLVQPGGSLRLSCAASGFTFSSYWMHWVRQAPGKGLEWVSAISGSGGSTYYADSVKGRFTISRDNSKNTLYLQMNSLRAEDTAVYYCAKYLRWGSYGILDYWGQGTLVTVSS
VL: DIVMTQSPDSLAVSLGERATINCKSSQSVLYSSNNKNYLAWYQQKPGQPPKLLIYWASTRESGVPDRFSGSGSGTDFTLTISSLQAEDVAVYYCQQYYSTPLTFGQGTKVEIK
notes: Human Fab from a pIX phage library, made in E. coli; kappa light chain (germline B3 scaffold); also called VH323-G9/VLB3
B2: Fab323-B3 (Fab, V domains shown)
VH: EVQLLESGGGLVQPGGSLRLSCAASGFTFSSYAMSWVRQAPGKGLEWVSAIRYDGSSKYYADSVKGRFTISRDNSKNTLYLQMNSLRAEDTAVYYCAKNLKILDYWGQGTLVTVSS
VL: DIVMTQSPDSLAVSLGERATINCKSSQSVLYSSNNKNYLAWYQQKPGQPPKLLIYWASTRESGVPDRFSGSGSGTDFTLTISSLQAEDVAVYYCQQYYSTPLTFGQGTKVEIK
notes: Human Fab from a pIX phage library, made in E. coli; kappa light chain (germline B3 scaffold); also called VH323-B3/VLB3
B3: Fab551-3 (Fab, V domains shown)
VH: EVQLVQSGAEVKKPGESLKISCKGSGYSFTSYWIGWVRQMPGKGLEWMGIIYPGDSDTRYSPSFQGQVTISADKSISTAYLQWSSLKASDTAMYYCARGLFWFFDYWGQGTLVTVSS
VL: EIVLTQSPATLSLSPGERATLSCRASQSVDSWLAWYQQKPGQAPRLLIYDASNRATGIPARFSGSGSGTDFTLTISSLEPEDFAVYYCQQFDTWPITFGQGTKVEIK
notes: Human Fab from a pIX phage library, made in E. coli; kappa light chain
B4: Fab169-64 (Fab, V domains shown)
VH: QVQLVQSGAEVKKPGSSVKVSCKASGGTFSSYAISWVRQAPGQGLEWMGGIIPIFGTANYAQKFQGRVTITADESTSTAYMELSSLRSEDTAVYYCARNIVGDYLLDYWGQGTLVTVSS
VL: B3 VL with S31D, F91G, W94A
notes: Human Fab from a pIX phage library, made in E. coli; kappa light chain; also called VH169-64/VL169-64
B5: Fab169-34 (Fab, V domains shown)
VH: QVQLVQSGAEVKKPGSSVKVSCKASGGTFSSYAISWVRQAPGQGLEWMGGIIPIFGTANYAQKFQGRVTITADESTSTAYMELSSLRSEDTAVYYCAREGPASWDNWALDYWGQGTLVTVSS
VL: B3 VL with D30S, S31D, D50Y, F91S, D92S, W94A
notes: Human Fab from a pIX phage library, made in E. coli; kappa light chain; also called VH169-34/VL169-34
B6: Fab323-G1 (Fab, V domains shown)
VH: EVQLLESGGGLVQPGGSLRLSCAASGFTFSDYWMSWVRQAPGKGLEWVSGIWGSGSSTYYADSVKGRFTISRDNSKNTLYLQMNSLRAEDTAVYYCAKHWGRGGDLDYWGQGTLVTVSS
VL: B3 VL with D30S, W32Y, F91R, D92S, T93N, I96L
notes: Human Fab from a pIX phage library, made in E. coli; kappa light chain (germline L6 scaffold); also called CNTO 3631
B7: Fab169-47 (Fab, V domains shown)
VH: QVQLVQSGAEVKKPGSSVKVSCKASGGTFSSYAISWVRQAPGQGLEWMGGIIPIFGTANYAQKFQGRVTITADESTSTAYMELSSLRSEDTAVYYCARTSPSFDYWGQGTLVTVSS
VL: B3 VL with D30R, S31D, W32F, D50Y, F91G, D92F, T93H, I96F
notes: Human Fab from a pIX phage library, made in E. coli; kappa light chain; also called VH169-47/VL169-47
B8: Fab169-31 (Fab, V domains shown)
VH: QVQLVQSGAEVKKPGSSVKVSCKASGGTFSSYAISWVRQAPGQGLEWMGGIIPIFGTANYAQKFQGRVTITADESTSTAYMELSSLRSEDTAVYYCARHLYYMLDYWGQGTLVTVSS
VL: B3 VL with D30A, S31D, F91Y, T93G
notes: Human Fab from a pIX phage library, made in E. coli; kappa light chain; also called CNTO 4093
B9: Fab169-C2 (Fab, V domains shown)
VH: QVQLVQSGAEVKKPGSSVKVSCKASGGTFSSYAISWVRQAPGQGLEWMGGIIPIFGTANYAQKFQGRVTITADESTSTAYMELSSLRSEDTAVYYCARHWRLNYWGQGTLVTVSS
VL: B3 VL with D30S, W32Y, F91R, D92S, T93N, I96L
notes: Human Fab from a pIX phage library, made in E. coli; kappa light chain (germline L6 scaffold); also called VH169-C2/VLL6
B10: Fab169-G11 (Fab, V domains shown)
VH: QVQLVQSGAEVKKPGSSVKVSCKASGGTFSSYAISWVRQAPGQGLEWMGGIIPIFGTANYAQKFQGRVTITADESTSTAYMELSSLRSEDTAVYYCARDGYDIVLGIFDYWGQGTLVTVSS
VL: B3 VL with D30S, W32Y, F91R, D92S, T93N, I96L
notes: Human Fab from a pIX phage library, made in E. coli; kappa light chain (germline L6 scaffold); also called VH169-G11/VLL6
B11: Fab169-45 (Fab, V domains shown)
VH: B7 VH with T99R, S100L, P101G, S102L
VL: B3 VL with W32A, F91Y, T93R, I96L
notes: Human Fab from a pIX phage library, made in E. coli; kappa light chain; also called VH169-45/VL169-45
B12: Fab 169-76 (Fab, V domains shown)
VH: B7 VH with A33G, I54Y, T99P, S100T, P101N, S102V, F103L
VL: B3 VL with D30R, S31K, W32F, F91S, D92N, T93N, I96F
notes: Human Fab from a pIX phage library, made in E. coli; kappa light chain (detected with anti-kappa-HRP); also called VH169-76/VL169-76

What was measured:
human collagen I = target: T1, human collagen I (human, UniProt P02452 162-1218; P08123 80-1119); test: ELISA, plate coated with 10 µg/ml human collagen I, anti-kappa-HRP, chemiluminescence
T1 construct: Bought collagen preparation
T1 sequence (P02452 162-1218, chain 1 of 2): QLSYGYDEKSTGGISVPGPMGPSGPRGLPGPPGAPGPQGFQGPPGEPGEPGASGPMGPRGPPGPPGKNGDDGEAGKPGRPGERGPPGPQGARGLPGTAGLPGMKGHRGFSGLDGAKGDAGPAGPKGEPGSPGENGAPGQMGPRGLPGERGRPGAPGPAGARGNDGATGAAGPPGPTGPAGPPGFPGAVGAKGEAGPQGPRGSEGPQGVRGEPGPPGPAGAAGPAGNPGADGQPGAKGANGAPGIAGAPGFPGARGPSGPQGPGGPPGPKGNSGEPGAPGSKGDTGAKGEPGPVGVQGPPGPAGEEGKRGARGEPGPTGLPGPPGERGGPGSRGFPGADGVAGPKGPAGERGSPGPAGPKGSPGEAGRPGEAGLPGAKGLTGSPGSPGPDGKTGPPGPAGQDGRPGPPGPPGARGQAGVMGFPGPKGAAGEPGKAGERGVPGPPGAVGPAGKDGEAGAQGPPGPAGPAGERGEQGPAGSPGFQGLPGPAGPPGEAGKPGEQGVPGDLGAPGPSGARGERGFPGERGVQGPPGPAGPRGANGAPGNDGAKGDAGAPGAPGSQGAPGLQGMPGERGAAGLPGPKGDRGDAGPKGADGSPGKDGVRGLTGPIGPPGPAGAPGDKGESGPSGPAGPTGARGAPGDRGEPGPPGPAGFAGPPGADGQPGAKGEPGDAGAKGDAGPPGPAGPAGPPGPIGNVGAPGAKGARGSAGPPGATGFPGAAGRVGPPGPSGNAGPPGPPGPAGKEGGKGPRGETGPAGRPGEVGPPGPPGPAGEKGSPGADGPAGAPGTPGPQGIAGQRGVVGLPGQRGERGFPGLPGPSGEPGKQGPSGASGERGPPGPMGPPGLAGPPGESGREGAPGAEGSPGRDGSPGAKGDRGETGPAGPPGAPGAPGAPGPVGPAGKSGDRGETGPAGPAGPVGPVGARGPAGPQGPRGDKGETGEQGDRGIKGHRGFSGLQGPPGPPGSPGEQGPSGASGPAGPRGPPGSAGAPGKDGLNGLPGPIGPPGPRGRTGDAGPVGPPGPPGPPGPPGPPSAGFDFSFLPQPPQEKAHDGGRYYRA
T1 sequence (P08123 80-1119, chain 2 of 2): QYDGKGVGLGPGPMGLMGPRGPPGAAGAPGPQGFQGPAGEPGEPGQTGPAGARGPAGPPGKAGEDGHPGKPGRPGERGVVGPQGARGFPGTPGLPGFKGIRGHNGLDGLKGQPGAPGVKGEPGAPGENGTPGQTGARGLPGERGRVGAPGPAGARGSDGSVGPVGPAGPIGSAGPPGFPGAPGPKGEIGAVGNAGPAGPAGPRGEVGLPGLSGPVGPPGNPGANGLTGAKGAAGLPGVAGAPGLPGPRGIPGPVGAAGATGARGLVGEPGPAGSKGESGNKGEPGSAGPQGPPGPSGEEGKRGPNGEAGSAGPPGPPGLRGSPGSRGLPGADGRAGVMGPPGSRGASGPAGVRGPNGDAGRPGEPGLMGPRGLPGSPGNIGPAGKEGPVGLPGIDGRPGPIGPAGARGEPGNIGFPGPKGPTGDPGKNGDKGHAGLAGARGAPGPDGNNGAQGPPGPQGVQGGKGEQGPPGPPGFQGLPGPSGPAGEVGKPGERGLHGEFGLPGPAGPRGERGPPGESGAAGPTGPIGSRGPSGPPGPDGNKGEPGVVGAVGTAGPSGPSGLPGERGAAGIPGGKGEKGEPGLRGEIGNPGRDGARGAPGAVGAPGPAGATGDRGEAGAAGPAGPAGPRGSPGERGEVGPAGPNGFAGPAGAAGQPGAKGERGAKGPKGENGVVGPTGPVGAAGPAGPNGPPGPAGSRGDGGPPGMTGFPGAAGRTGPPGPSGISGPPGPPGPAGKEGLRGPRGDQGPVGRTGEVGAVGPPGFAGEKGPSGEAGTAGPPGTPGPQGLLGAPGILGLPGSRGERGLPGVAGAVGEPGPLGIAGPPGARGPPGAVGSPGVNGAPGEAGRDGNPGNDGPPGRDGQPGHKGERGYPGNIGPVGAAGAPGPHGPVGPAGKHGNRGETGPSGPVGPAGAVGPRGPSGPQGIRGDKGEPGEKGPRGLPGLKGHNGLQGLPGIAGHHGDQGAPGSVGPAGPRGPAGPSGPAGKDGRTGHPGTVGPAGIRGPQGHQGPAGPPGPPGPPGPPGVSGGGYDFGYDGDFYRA
Method: (§1) Maxisorp ELISA plates (Nunc) were coated with 10 μg/ml human collagen I (Chondrex), human collagen II (Chondrex), rat collagen I (Chondrex), rat collagen II (Chondrex) or with 5 μg/ml human collagen IV (Chemicon) or human collagen V (Chemicon), or with anti-Fd (the Binding Site) at 1 μg/ml, all in PBS, according to manufacturer's instructions. The wells were washed three times in TBST and blocked for one hour with 200 μL 3% milk in TBST. 100 μL of the Fab lysate was added onto the wells of the coated ELISA plates, and incubated 1 hour at room temperature. The wells were washed three times followed by addition of 100 μL of anti-kappa-HRP (Southern Biotech) at 1:5000 in PBS. The plates were incubated at room temperature for one hour, washed three times with TBST, and developed with BM Chemiluminescence ELISA Substrate (Roche Applied Science). The clones that bound to human and rat collagen II without binding to human collagen I, IV or V, or rat collagen I were sequenced and unique clones were further characterized.

rat collagen I = target: T2, rat collagen I (rat, UniProt P02454 152-1207; P02466 86-1125); test: ELISA, plate coated with 10 µg/ml rat collagen I, anti-kappa-HRP, chemiluminescence
T2 construct: Bought collagen preparation
Method: as §1

rat collagen II [1] = target: T3, rat collagen II (rat, UniProt P05539 114-1173); test: ELISA, plate coated with 10 µg/ml rat collagen II, 100 µL Fab lysate, anti-kappa-HRP, chemiluminescence
T3 construct: Bought collagen preparation
T3 sequence (P05539 114-1173 limits assumed): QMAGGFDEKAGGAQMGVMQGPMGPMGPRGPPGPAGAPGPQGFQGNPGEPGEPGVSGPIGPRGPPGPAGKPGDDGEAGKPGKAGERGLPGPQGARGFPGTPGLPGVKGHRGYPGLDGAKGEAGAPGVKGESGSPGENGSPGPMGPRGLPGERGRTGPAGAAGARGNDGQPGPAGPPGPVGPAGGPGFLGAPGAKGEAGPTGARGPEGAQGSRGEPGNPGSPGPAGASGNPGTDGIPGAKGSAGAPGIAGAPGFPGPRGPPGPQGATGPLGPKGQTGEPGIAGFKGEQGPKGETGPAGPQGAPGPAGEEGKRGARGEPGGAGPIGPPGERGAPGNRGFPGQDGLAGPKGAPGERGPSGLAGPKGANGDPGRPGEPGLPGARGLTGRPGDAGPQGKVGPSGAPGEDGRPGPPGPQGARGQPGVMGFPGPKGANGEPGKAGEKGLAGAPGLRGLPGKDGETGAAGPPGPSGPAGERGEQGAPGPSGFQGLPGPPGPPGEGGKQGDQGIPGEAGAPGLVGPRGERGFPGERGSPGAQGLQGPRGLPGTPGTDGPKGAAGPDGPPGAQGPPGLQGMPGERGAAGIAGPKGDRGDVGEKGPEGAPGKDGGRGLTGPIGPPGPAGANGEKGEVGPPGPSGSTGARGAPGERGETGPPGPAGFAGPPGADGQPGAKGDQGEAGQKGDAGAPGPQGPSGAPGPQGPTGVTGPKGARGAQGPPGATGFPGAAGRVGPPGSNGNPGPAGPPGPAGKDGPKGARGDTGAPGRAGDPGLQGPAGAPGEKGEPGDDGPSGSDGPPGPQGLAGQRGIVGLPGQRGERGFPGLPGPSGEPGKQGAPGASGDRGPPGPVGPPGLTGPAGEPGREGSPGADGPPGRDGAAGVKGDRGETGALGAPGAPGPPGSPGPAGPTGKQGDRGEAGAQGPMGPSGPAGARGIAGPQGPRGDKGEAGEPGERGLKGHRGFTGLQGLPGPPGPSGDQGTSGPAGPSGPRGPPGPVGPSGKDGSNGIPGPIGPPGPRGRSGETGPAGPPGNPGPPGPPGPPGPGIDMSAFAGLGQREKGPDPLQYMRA
Method: as §1

human collagen II [2] = target: T4, human collagen II (human, UniProt P02458 182-1241); test: ELISA, purified Fab 10 ng/ml-10 ug/ml on coated collagen II
T4 construct: Purified human collagen II (Chondrex #2015), isolated from cartilage; also called huColII; human type II collagen
T4 sequence (P02458 182-1241 limits assumed): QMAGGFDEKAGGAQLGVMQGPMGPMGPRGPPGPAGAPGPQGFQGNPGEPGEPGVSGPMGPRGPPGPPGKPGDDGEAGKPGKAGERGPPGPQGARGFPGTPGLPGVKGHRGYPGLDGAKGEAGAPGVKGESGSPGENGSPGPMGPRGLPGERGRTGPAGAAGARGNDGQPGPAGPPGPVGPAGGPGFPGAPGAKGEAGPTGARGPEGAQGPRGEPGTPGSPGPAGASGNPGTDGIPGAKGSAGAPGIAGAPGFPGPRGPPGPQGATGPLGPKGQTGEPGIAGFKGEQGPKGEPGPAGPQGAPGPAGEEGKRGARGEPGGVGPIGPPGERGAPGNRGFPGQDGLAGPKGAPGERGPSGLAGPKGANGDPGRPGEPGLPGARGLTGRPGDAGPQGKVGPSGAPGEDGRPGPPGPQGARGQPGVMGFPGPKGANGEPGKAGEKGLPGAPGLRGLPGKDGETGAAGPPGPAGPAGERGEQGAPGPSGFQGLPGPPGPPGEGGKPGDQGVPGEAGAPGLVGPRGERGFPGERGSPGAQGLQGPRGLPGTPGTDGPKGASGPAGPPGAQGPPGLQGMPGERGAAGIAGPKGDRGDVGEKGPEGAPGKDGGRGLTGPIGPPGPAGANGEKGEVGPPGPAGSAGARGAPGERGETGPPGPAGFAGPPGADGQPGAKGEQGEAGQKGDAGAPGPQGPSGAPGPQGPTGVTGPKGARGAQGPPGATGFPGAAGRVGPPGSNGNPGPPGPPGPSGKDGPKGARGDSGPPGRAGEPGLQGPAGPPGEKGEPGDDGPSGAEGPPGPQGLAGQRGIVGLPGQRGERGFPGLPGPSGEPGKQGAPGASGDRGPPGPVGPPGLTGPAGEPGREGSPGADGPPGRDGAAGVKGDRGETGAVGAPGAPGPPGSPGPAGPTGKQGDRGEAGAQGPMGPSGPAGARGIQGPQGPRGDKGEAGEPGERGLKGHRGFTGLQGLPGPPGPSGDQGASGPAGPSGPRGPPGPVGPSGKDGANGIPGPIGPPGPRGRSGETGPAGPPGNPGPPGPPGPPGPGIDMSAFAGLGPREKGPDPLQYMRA
Method: as §1
EC50 values were obtained for select Fabs using ELISA assay as described above. In the assays, 100 microliters of each Fab was added in a concentration range between 10 ng/ml-10 μg/ml onto the wells.

human collagen II [3] = target: T4, human collagen II; test: ELISA, plate coated with 10 µg/ml human collagen II, 100 µL Fab lysate, anti-kappa-HRP, chemiluminescence
Method: as §1

human collagen II [4] = target: T4, human collagen II; test: Biacore binding kinetics
rat collagen II [5] = target: T3, rat collagen II; test: Biacore binding kinetics

Binder | binding result (human collagen I) | binding result (rat collagen I) | binding result (rat collagen II [1]) | EC50 (human collagen II [2]) [µg/mL] | binding result (human collagen II [3]) | Kd (human collagen II [4]) [nM] | Kd (rat collagen II [5]) [nM]
B1 | no binding (tested: not given (100 µL Fab lysate)) | no binding (tested: not given (100 µL Fab lysate)) |  |  |  |  | 
B2 | no binding (tested: not given (100 µL Fab lysate)) | no binding (tested: not given (100 µL Fab lysate)) |  |  |  |  | 
B3 | no binding (tested: not given (100 µL Fab lysate)) | no binding (tested: not given (100 µL Fab lysate)) | binds | 0.114 |  |  | 
B4 | no binding (tested: not given (100 µL Fab lysate)) | no binding (tested: not given (100 µL Fab lysate)) | binds |  | binds |  | 
B5 |  |  | binds |  | binds |  | 
B6 |  |  |  | 0.123 |  | 6 | 5
B7 |  | no binding (tested: not given (100 µL Fab lysate)) | binds |  | binds |  | 
B8 | no binding (tested: not given (100 µL Fab lysate)) | no binding (tested: not given (100 µL Fab lysate)) |  | 0.113 |  | 50 | 75
B9 | no binding (tested: not given (100 µL Fab lysate)) | no binding (tested: not given (100 µL Fab lysate)) | binds |  | binds |  | 
B10 |  | no binding (tested: not given (100 µL Fab lysate)) | binds |  | binds |  | 
B11 |  |  | binds |  | binds |  | 
B12 | no binding (tested: not given (100 µL Fab lysate)) | no binding (tested: not given (100 µL Fab lysate)) | binds |  | binds |  | 
